Results as given in the supplement of paper PMC9170038.

Tested on: MS2 coat protein
Test: apparent KD of MS2 coat protein; designed switch direction (-1 OFF switch, 1 ON switch): 1; higher = weaker reporter binding
In short: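 Transcription of designed RNA switches on Illumina chips was done by stalled E. coli RNA polymerase. SNAP-549-labelled MS2 coat protein was then titrated in doubling steps from 0.7 or 1.5 nM to 3 µM, with steps of 0.8–1.5 h at the lowest and 10–20 min at the highest concentration. The per-design median over clusters of curve-fitted normalised fluorescence is reported as apparent KD.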

[1] = Eterna round: R95, input ligand: FMN 200 uM
[2] = Eterna round: R95, input ligand: microRNA oligo, concentration not stated
[3] = Eterna round: R95, input ligand: none
[4] = input ligand: microRNA oligo, concentration not stated

| Sequence | apparent KD of MS2 coat protein [1] [nM] | apparent KD of MS2 coat protein [2] [nM] | apparent KD of MS2 coat protein [3] [nM] | apparent KD of MS2 coat protein (input ligand: FMN 200 uM) [nM] | apparent KD of MS2 coat protein [4] [nM] | apparent KD of MS2 coat protein (input ligand: none) [nM] |
| --- | --- | --- | --- | --- | --- | --- |
| GGUCCAGCCUGAGCUGGACAAAAGCAUGUACAUGAGGAUCACCCAUGUCAUGUACAAGCUUUUUGCUCGUCUAAAAG [Mat - hsa-mir-208a - 95] (puzzle: Sensor for hsa-mir-208a) | 234 | 19 | 467 |  |  |  |
| GAGAAGAGGGACAAGGAUAUGUCAGGAGAGACAUGAGGAUCACCCAUGUAGAGGUUGGAGGAGAGACAGAAGGUGUAGGGAGCGA [JR_SS2_Sub012] (puzzle: Same State 2) | 50.1 | 57.2 | 98 |  |  |  |
| GGUAUCGGCGCAGGAUAUGCUAUCCUUUGGGUAGCAGAAGGGUGAACAUGAGGAUCACCCAUGUAGGUGCCAGGGCGUGAGCCC [JL SSNG1 1.81] (Eterna round: R96, puzzle: Same State NG 1) |  |  |  | 1130 | 147 | 444 |
| ACCUUGUGGGUAGGAUAUUUAGGAUAUGCGGAAGACUAAGUCUGUAGGUCACCUAACGCAGAAGGAGAGAAGGACCCUUCAGCA [pwkr ssNG2 2FMN + F9.31] (Eterna round: R96, puzzle: Same State NG 2) |  |  |  | 109 | 3.66 | 4.74 |
| GUUACAUGAGGAUCACCCAUGUGUGUGUGGGAGUAAGUGGCUUAGGAUAUCUAUGAUUUAAGUUAAGAGAAGGAAGAUUGUUGU [SS-NG3-LRO02] (Eterna round: R96, puzzle: Same State NG 3) |  |  |  | 194 | 204 | 272 |
| UAGUGCAUUAGAGGAUAUUCUUACGAAAACGUAAAGACAUGAGGAUCACCCAUGUUGUCACAUGGGAAGAAGGCUGAUGUGCUA [Omei SS(NG)2 Bv3] (Eterna round: R96, puzzle: Same State NG 2) |  |  |  | 26.3 | 117 | 148 |
| UAAACUUCUUUUAGUGUGUUGCCAGUUUUACAUGAGGAUCACCCAUGUUAAGUAUUGUGGUAUUUUGUUCGUCUUAA [JR_SHM208A_Sub074] (puzzle: Sensor for hsa-mir-208a) | 15.2 | 14.2 | 15.3 |  |  |  |
| AUACAUGAGGAUCACCCAUGUAAUUAAUUAAUUAAUAAGAUCUAGGAUAUCAGCUCGAAUAGAGCUGAGAAGGAGAUCACAUGU [SSNG3/21-B1] (Eterna round: R96, puzzle: Same State NG 3) |  |  |  |  | 19.4 |  |
| AAUUAUUAACAUGAGGAUCACCCAUGUAUUUAUGUUAGUAUCUAACAUAGUCUUAUUAAGCUUUGUGAUUGUCUUAU [Cole's First Solution] (puzzle: Sensor for hsa-mir-208a version 2) | 29.8 | 32.6 | 38.8 |  |  |  |
| GUACAUAUUAUAGGAUAUCACGUCGAUUAGACGUGAGAAGGAUAAUCCCACAUGAAUAUUAAUACAUGAGGAUCACCCAUGUAC [SSNG1/18-A2] (Eterna round: R96, puzzle: Same State NG 1) |  |  |  | 83.3 | 66.3 | 51 |
| GGAGAACAUGAGGAUCACCCAUGUAAGAGAAGUGUAGGAUAUGUGAGGAGCAGAGGAGGAACAGAAGGACAUGGAG [JR_SS!_Sub071] (puzzle: Same State 1) | 29.8 | 41 | 58.3 |  |  |  |
| AGAUCAUGACGAGGAUAUGGAACAUGAGGAUCACCCAUGUAUGUUCCAUAACGCGAAUAAAGAAUCCAGAAGGCGUCGUGAUCA [Mat - Same State NG 2 - JL mod - D31] (Eterna round: R96, puzzle: Same State NG 2) |  |  |  | 13.1 | 52.5 | 85.5 |
| GAGCCAGUCCGAGGAUAUUCAUACAUGAGGAUCACCCAUGUAGGCUCAGAAAAGAAAGAGCCUUGGGAGAAGGCGGACUGGCUC [Xeonanisa<<6] (Eterna round: R96, puzzle: Same State NG 2) |  |  |  | 6.96 | 6.06 | 10.9 |
